According to publication PMC3760248:
Substitutions are numbered along the chain they refer to.

How the values were obtained:
Test in all cases: ITC
MepR(F27L/F104A) = molecular target: T1, MepR(F27L/F104A) (Staphylococcus aureus, UniProt Q5Y812 1-139, F27L;F104A)
T1 sequence: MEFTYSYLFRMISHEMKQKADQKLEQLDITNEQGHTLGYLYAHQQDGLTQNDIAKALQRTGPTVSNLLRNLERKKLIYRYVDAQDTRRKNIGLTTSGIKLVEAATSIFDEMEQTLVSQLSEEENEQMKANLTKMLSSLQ

MepR(A103S) = molecular target: T2, MepR(A103S) (Staphylococcus aureus, UniProt Q5Y812 1-139, A103S)
T2 sequence: T1 sequence with L27F, A103S, A104F

MepR(Q18A) = molecular target: T3, MepR(Q18A) (Staphylococcus aureus, UniProt Q5Y812 1-139, Q18A)
T3 sequence: T1 sequence with Q18A, L27F, A104F

MepR WT = molecular target: T4, MepR WT (Staphylococcus aureus, UniProt Q5Y812 1-139)
T4 sequence: T1 sequence with L27F, A104F

B1: mepR operator, palindromic 26-mer (dsDNA)
DNA 1: TATTTAGTTAGATATCTAACTAAATA
DNA 2: TATTTAGTTAGATATCTAACTAAATA
- Kd (MepR(F27L/F104A)): 32.3 nM
- Kd (MepR(A103S)): 42.6 nM
- Kd (MepR(Q18A)): 34.1 nM
- Kd (MepR WT): 36.6 nM
